Entries after “also recorded” stand apart in the source; their conditions may differ.
System: HEG1 protein (purified from ACC-MESO4 or recombinant soluble HEG1)
Assay: Western blot / dot blot reactivity of antibodies with HEG1 protein
Assay type: binding, human
Description: A massive amount of ACC-MESO4 was cultured, and purification of an antigen from the cell lysate was performed. Cells from 240 10-cm dishes were solubilized with 50 mM Tris buffer (pH 8.0) containing 1% TRITON™ X-100 (detergent), 1% CHAPS, 1 mM EDTA, 50 mM NaCl, and protease inhibitor (Complete, Roche Life Science), and then centrifuged. The resulting supernatant was dialyzed with 20 mM acetate buffer (pH 5.0) at 4° C. for 18 hours to afford an acidic precipitate. The precipitate was extracted with 20 mM Tris buffer (pH 7.2) containing 0.1% TWEEN® 20 (polyethylene glycol sorbitan monolaurate, polyoxyethylenesorbitan monolaurate) and 150 mM NaCl and centrifuged, and the resulting supernatant was concentrated by using an Amicon Ultra-15, 100 kDa (Merck Millipore) and subjected to solution exchange with 20 mM Tris buffer (pH 8.0) containing 6 M guanidine hydrochloride. To the concentrated solution, tris(2-carboxyethyl)phosphine hydrochloride with a final concentration of 10 mM was added, and the resultant was heated at 60° C. for 30 minutes, and iodoacetamide with a final concentration of 40 mM was then added thereto, and reacted at room temperature for 3 hours. The reaction solution was subjected to gel filtration chromatography (SUPEROSE® 6 INCREASE (prepacked column) 10/300 GL (GE Healthcare)) in 20 mM Tris buffer (pH 8.0) containing 6 M guanidine hydrochloride and 0.05% TWEEN® 20 (polyethylene glycol sorbitan monolaurate, polyoxyethylenesorbitan monolaurate), and fractions positive for dot blot were collected. The sample was dialyzed with 25 mM phosphate buffer (pH 7.0) containing 4 M urea and 0.05% TWEEN® 20 (polyethylene glycol sorbitan monolaurate, polyoxyethylenesorbitan monolaurate) at room temperature overnight, and applied to a Mono Q 5/50 GL (GE Healthcare). The column was washed with 25 mM phosphate buffer (pH 7.0) containing 4 M urea and 0.05% TWEEN® 20 (polyethylene glycol sorbitan monolaurate, polyoxyethylenesorbitan monolaurate), and thereafter elution was performed with an NaCl salt concentration gradient of 0 to 1 M. Fractions strongly positive for dot blot were collected, and dialyzed with 25 mM phosphate buffer (pH 7.2) containing 150 mM NaCl and 0.05% TWEEN® 20 (polyethylene glycol sorbitan monolaurate, polyoxyethylenesorbitan monolaurate) at room temperature overnight, and applied to 1 mL of WGA-SEPHAROSE® (wheat germ agglutinin-crosslinked, beaded-form of agarose) (J-OIL MILLS, Inc.). After washing with buffer, elution was performed with 25 mM phosphate buffer (pH 7.2) containing 0.2 M N-acetylglucosamine, 150 mM NaCl, and 0.05% TWEEN® 20 (polyethylene glycol sorbitan monolaurate, polyoxyethylenesorbitan monolaurate), and the eluent was concentrated with a Centricon (YM-30) (Millipore). Gel filtration chromatography (SUPEROSE® 6 INCREASE (prepacked column) 10/300 GL (GE Healthcare)) was performed in 25 mM phosphate buffer (pH 7.2) containing 3 M GdnHCI and 0.5% CHAPS, and fractions strongly positive for dot blot were dialyzed with 20 mM NH4HCO3 containing 0.5% CHAPS at room temperature overnight to afford a purified antigen.
The dot blot was performed as follows. A PVDF membrane (Immobilon-P, Merck Millipore) was soaked in methanol, and then washed and impregnated with pure water. The hydrophilized PVDF membrane was placed on a filter paper containing water to avoid air inclusion, removed of excessive moisture, and soaked with 1 to 5 μL of the sample in dots fed by a micropipette. After the membrane was dried at room temperature overnight, the membrane was hydrophilized again with methanol and pure water, and blocked with 20 mM Tris buffer (pH 7.4) containing 5% skim milk, 0.1% TWEEN® 20 (polyethylene glycol sorbitan monolaurate, polyoxyethylenesorbitan monolaurate), and 150 mM NaCl (blocking buffer) at room temperature for 1 hour. […]

B1: SKM9-2 antibody: mouse monoclonal IgG1 kappa antibody binding glycosylated HEG1; heavy chain SEQ ID NO: 2, light chain SEQ ID NO: 4 (antibody, listed as Mus musculus)
heavy: MGWSSIILFLVATTTGVHSQVQLQQPGAELVRPGASVKLSCKASGFSFTTYWITWVKQRPGQGLEWIGMIHPSDSETRLSQTFKDKATLTVDKSSNTAYMQFSSPTSEDSAVYYCVRDFDVWGAGTTVTVSSAKTTPPSVYPLAPGSAAQTNSMVTLGCLVKGYFPEPVTVTWNSGSLSSGVHTFPAVLQSDLYTLSSSVTVPSSTWPSETVTCNVAHPASSTKVDKKIVPRDCGCKPCICTVPEVSSVFIFPPKPKDVLTITLTPKVTCVVVDISKDDPEVQFSWFVDDVEVHTAQTQPREEQFNSTFRSVSELPIMHQDWLNGKEFKCRVNSAAFPAPIEKTISKTKGRPKAPQVYTIPPPKEQMAKDKVSLTCMITDFFPEDITVEWQWNGQPAENYKNTQPIMDTDGSYFVYSKLNVQKSNWEAGNTFTCSVLHEGLHNHHTEKSLSHSPGK
light: MKLPVRLLVLMFWIPASISDVLMTQTPLSLPVSLGDQASISCRSSQNIVHNNGNTYLGWYLQKPGQSPKLLIFKVSNRFSGVPDRFSGSGSGTDFTLKISRVEAEDLGVYYCFQGSHIPRTFGGGTRLEIKRADAAPTVSIFPPSSEQLTSGGASVVCFLNNFYPKDINVKWKIDGSERQNGVLNSWTDQDSKDSTYSMSSTLTLTKDEYERHNSYTCEATHKTSTSPIVKSFNRNEC
- Recognition of purified antigen band at approximately 400 kDa (Western blotting, antigen purified from ACC-MESO4): recognized
- Reactivity with antigen after N-glycanase (PNGase F) treatment (dot blot): did not cause the antibody to lose the reactivity
- Reactivity with antigen after Proteinase K treatment (dot blot): caused the antibody to lose the reactivity
- Reactivity with antigen treated with neuraminidase (dot blot, HEG1 protein purified from ACC-MESO4, neuraminidase treatment): did not bind; also recorded: weakened

From patent US12123876B2, “Antibody binding to HEG1 and use of the antibody for detection and treatment of mesothelioma” (Kanagawa Prefectural Hospital Organization, priority 2016, dated 2024)
